Source: paper PMC7556464, “4CMenB vaccine induces elite cross-protective human antibodies that compete with human factor H for binding to meningococcal fHbp” (PLoS Pathogens, 2020)

T1: factor H binding protein (fHbp) variant 1.1, recombinant (Neisseria meningitidis MC58, fHbp v1.1)
T1 construct: also called fHbp v1.1; fHbp v1; source: E. coli BL21(DE3), purified (Ni-NTA, SEC when necessary); not shown: His6, C-terminal, kept
T1 chain: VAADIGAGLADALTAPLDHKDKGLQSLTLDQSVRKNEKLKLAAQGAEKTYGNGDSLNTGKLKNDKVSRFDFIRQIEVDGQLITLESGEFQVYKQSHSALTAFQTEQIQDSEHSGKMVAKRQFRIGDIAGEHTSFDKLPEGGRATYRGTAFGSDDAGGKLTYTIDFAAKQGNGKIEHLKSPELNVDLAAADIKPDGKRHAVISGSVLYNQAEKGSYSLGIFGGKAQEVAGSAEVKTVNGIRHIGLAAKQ

T2: factor H binding protein (fHbp) variant 1.1 (Neisseria meningitidis MC58, fHbp v1.1, strain)
T2 construct: also called fHbp v1.1; fHbp v1; source: E. coli BL21(DE3), purified (Ni-NTA; SEC when necessary)
T2 chain: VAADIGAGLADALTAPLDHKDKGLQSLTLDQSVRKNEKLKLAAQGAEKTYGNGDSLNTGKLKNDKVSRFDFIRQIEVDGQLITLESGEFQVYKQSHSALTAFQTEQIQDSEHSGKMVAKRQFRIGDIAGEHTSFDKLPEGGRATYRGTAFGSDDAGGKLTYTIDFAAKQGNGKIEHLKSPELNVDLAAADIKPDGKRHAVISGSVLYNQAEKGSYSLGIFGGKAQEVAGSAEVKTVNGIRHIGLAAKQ

B1: human anti-fHbp mAb 3B7 (antibody, V domains shown)
VH: EVQLVQSGAEVKKPGSSVKVSCKASGDTFSNYPISWVRQAPGQGLEWMGGIIPIFGTANYAQKFQGRVTITADESTSTPYMELSSLRSEDTAVYYCARGDTAMAPFDYWGQGTLVTVSS
VL: SYVLTQPPSVSVAPGKTARITCGGNSIGSKSVHWYQQKPGQAPVLVIYYDSDRPSGVPERISGSNSGNTATLTISRVEAGDEADYYCQVWDSSSDSWVFGGGTKLTVL
notes: source: Expi293, transient transfection, purified (protein G Sepharose)
B2: human anti-fHbp mAb 1E10 (antibody, V domains shown)
VH: QVQLVESGGDLVKPGGSLRLSCVASGFTFSSYTMNWVRQAPGKGLEWVSSITSSSSFTYYADSVKGRFIISRDNAKNSLSLQMNNLRVEDTATYYCARRKDSSDYDWYYYYGMDVWGLGTTVTVSS
VL: QSVVTQPPSVSAAPGQKVTISCSGSSSNIGDNYMSWYQQIPGTAPKLLIFDNDQRPSGIPDRFSASKSGTSATLDITGFQTGDEADYYCGTWDSGLSAPVFGGGTKLTVL
notes: IgG1; source: Expi293, transient transfection, purified (protein G Sepharose)
B3: human anti-fHbp mAb 4B10 (antibody, V domains shown)
VH: EVQLVESGGGLVKPGGSLRLSCAASGFAFSTYSLHWVRQAPGKGLEWVSAITSSGSFLYYADSLKGRFTVSRDNAKNSLFLQMNSLRAGDTAVYYCARALQVEDGFPMFSGLDVWGQGTTVTVSS
VL: QTVVTQPPSVSEAPRQRVAISCSGSSSNIGDNSVSWYQQLPGKAPKLLIYDDDLLPSGVSDRFSASKSGTSASLAISGLQSEDEAEYYCAAWDDSLKGVVFGGGTKLTVL
notes: as for B2
B4: human anti-fHbp mAb 3B7 (antibody, V domains shown)
VH: EVQLVQSGAEVKKPGSSVKVSCKASGDTFSNYPISWVRQAPGQGLEWMGGIIPIFGTANYAQKFQGRVTITADESTSTPYMELSSLRSEDTAVYYCARGDTAMAPFDYWGQGTLVTVSS
VL: SYVLTQPPSVSVAPGKTARITCGGNSIGSKSVHWYQQKPGQAPVLVIYYDSDRPSGVPERISGSNSGNTATLTISRVEAGDEADYYCQVWDSSSDSWVFGGGTKLTVL
notes: as for B1
B5: human anti-fHbp mAb 5F12 (antibody, V domains shown)
VH: EVQLVESGGDLVKPGGSLRLSCAASGFTFSNYTMNWVRQAPGKGLEWVSSITSSSSFKYYADSVKGRFTISRDNAKNSVFLQMNSLRAEDTAIYYCARRIDSSDQDWFYYYGMDVWGLGTTVTVSS
VL: QSVLTQPPSVSAAPGQRVTISCSGSSSNIGDNYISWYQQLPGTAPKLLIYDNDQRPSGTPDRFSASKSGTSATLGVTGLQTGDEADYYCGTWDSSLNAPVFGSGTKVTVL
notes: as for B1
B6: human anti-fHbp mAb 2C8 (antibody, V domains shown)
VH: QVQLVQSGAEVKKPGSSVKVSCKASGGTVINYPISWVRQVPGQGLEWMGRLVPLFGTPNYGQKFQGRITITADKSTSAAYMELIGLKSEDTAVYYCARGDTAMAPFDYWGHGTLVTVSS
VL: QLVLTQPPSVSVAPGKTATITCGGNNVGGKTVHWYQQKPGQAPVLVMSYDSDRPSGIPERFSGSNSGNTATLTISRVEAEDEADYYCQVWHGNDDHWVFGGGTKLTVL
notes: as for B1
B7: human anti-fHbp mAb 5C6 (antibody, V domains shown)
VH: EVQLLESGGGLVQPGGSLRLSCAASGFTFSSYAMSWVRQTPGKGLEWVSAISGSGGSTYYADSVQGRFTISRDNSKNTLYLQINSLRAEDTAVYYCAKDPGFVLSSGWYYFDYWGQGTLVTVSS
VL: not shown
notes: as for B1

What was measured:
Assay in all cases: SPR
Conditions in all cases: both partners purified
[1] = target: T3, factor H binding protein (fHbp) variant 2.16, recombinant (Neisseria meningitidis 961-5945, UniProt Q6VS19, strain)
T3 construct: also called fHbp v2.16; fHbp v2; source: E. coli BL21(DE3), purified (Ni-NTA, SEC when necessary)

[2] = target: T4, factor H binding protein (fHbp) variant 3.28, recombinant (Neisseria meningitidis M1239, fHbp v3.28, UniProt Q19KF7, strain)
T4 construct: also called fHbp v3.28; fHbp v3; source: E. coli BL21(DE3), purified (Ni-NTA, SEC when necessary)

[3] = target: T1, factor H binding protein (fHbp) variant …
[4] = target: T2, factor H binding protein (fHbp) variant …
[5] = target: T5, factor H binding protein (fHbp) variant 3.28 (Neisseria meningitidis M1239, fHbp v3.28, UniProt Q19KF7, strain)
T5 construct: also called fHbp v3.28; fHbp v3; source: E. coli BL21(DE3), purified (Ni-NTA; SEC when necessary)

[6] = target: T6, factor H binding protein (fHbp) variant 2.16 (Neisseria meningitidis 961-5945, UniProt Q6VS19, strain)
T6 construct: also called fHbp v2.16; fHbp v2; source: E. coli BL21(DE3), purified (Ni-NTA; SEC when necessary)

Binder	Kd [1]	Kd [2]	Kd [3]	koff [4]	kon [4]	koff [5]	kon [5]	koff [6]	kon [6]
B1	0.551 nM	2.2 nM	2.6 nM						
B2	1.4 nM	1.27 nM	1.54 nM						
B3		1.67 nM	0.296 nM						
B4				0.00442 s⁻¹	1.71e+06 M⁻¹ s⁻¹	0.00083 s⁻¹	382000 M⁻¹ s⁻¹	7.13e-06 s⁻¹	1.32e+06 M⁻¹ s⁻¹
B5				0.000846 s⁻¹	854000 M⁻¹ s⁻¹	0.00613 s⁻¹	350000 M⁻¹ s⁻¹	0.00188 s⁻¹	690000 M⁻¹ s⁻¹
B6				0.000388 s⁻¹	1.16e+06 M⁻¹ s⁻¹	0.0002 s⁻¹	430000 M⁻¹ s⁻¹	0.000689 s⁻¹	1.31e+07 M⁻¹ s⁻¹
B7				0.000454 s⁻¹	420000 M⁻¹ s⁻¹	0.00071 s⁻¹	350000 M⁻¹ s⁻¹	0.000345 s⁻¹	204000 M⁻¹ s⁻¹
